Experimental data: article PMC2699478

What was measured:
[1] = molecular target: NF-kB (mouse (endogenous in NIH3T3))
[2] = molecular target: NFAT (mouse (endogenous in NIH3T3)) (UniProt Q60591)
Sequence of UniProt Q60591 (Q60591 whole entry): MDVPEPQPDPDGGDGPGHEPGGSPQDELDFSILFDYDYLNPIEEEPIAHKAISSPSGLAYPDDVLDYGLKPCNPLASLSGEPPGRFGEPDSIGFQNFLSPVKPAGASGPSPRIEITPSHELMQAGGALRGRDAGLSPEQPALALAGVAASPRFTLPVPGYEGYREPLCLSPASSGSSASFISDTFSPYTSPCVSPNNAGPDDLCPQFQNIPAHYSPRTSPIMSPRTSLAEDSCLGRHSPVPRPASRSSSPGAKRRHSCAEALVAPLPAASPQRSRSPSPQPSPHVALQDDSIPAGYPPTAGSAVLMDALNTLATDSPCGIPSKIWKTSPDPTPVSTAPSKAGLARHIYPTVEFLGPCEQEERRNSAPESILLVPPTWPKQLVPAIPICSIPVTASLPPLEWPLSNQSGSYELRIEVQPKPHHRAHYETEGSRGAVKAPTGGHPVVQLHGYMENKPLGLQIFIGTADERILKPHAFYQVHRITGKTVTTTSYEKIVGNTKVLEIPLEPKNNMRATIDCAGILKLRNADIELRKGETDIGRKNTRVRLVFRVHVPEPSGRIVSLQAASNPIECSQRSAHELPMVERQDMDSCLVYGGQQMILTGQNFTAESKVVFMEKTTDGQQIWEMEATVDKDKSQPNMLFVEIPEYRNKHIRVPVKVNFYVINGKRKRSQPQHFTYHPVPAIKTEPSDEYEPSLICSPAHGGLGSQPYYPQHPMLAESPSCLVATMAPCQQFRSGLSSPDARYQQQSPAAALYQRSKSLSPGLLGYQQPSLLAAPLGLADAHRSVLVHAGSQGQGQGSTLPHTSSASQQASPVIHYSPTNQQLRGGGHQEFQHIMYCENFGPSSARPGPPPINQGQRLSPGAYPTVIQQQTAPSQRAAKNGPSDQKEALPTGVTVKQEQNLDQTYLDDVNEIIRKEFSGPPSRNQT

- NF-kB-mediated transcription of luciferase (pNF-κB-Luc) in NIH3T3 cells co-transfected with the FOXP3 isoform; level left, induction without FOXP3 set 100% [1]: 9%
- NFAT-mediated transcription of luciferase (pNFAT-TA-Luc) in NIH3T3 cells co-transfected with the FOXP3 isoform; induction without FOXP3 set 100% [2]: 50%
Substance: FOXP3Δ2 (natural protein)
